Measured values published in the supplement of paper PMC10567573.

B1: INTS3 (parent)
chain: FHPIKETVVEEPVDITPYLDQLDE
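Note: lentivirally expressed fusions sorted by FACS into six bins by GFP to DsRed ratio, PSI derived from sequencing read proportions per bin multiplied by bin number.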

Variants of: B1
Test: protein stability index of a GFP-peptide fusion (GPS, HEK-293T) (PSI 1-6); higher = more stable
Conditions: c terminus: a fixed tail appended
Work on FHPIKETVVEEPVDITPYLPQLDE [D20P] yielded a protein stability index of 2.
Work on FHPIKETVVEEPVDITPYLHQLDE [D20H] yielded a protein stability index of 3.
FHPIKETVVEEPVDITPYLCQLDE [D20C] showed a protein stability index of 2.49.
FHPIKETVVEEPVDITPYLWQLDE [D20W] showed a protein stability index of 2.14.
Work on FHPIKETVVEEPVDITPYLQQLDE [D20Q] yielded a protein stability index of 2.41.
With FHPIKETVVEEPVDITPYYDQLDE [L19Y] the protein stability index was 3.2.
Variant FHPIKETVVEEPVDITPYPDQLDE [L19P] has a protein stability index of 3.88.
FHPIKETVVEEPVDITPYIDQLDE [L19I] gave a protein stability index of 3.12.
Variant FHPIKETVVEEPVDITPYNDQLDE [L19N] has a protein stability index of 3.66.
In the case of FHPIKETVVEEPVDITPYQDQLDE [L19Q], the protein stability index is reported as 2.72.
For FHPIKETVVEEPVDITPYVDQLDE [L19V], the protein stability index was 4.03.
For FHPIKETVVEEPVDITPYTDQLDE [L19T], the protein stability index was 3.31.
FHPIKETVVEEPVDITPYSDQLDE [L19S] showed a protein stability index of 3.98.
FHPIKETVVEEPVDITPYHDQLDE [L19H] showed a protein stability index of 3.18.
Work on FHPIKETVVEEPVDITPYMDQLDE [L19M] yielded a protein stability index of 2.86.
FHPIKETVVEEPVDITPYKDQLDE [L19K] showed a protein stability index of 3.24.
For FHPIKETVVEEPVDITPYFDQLDE [L19F], the protein stability index was 3.02.
FHPIKETVVEEPVDITPYCDQLDE [L19C] showed a protein stability index of 3.21.
For FHPIKETVVEEPVDITPYWDQLDE [L19W], the protein stability index was 2.56.
FHPIKETVVEEPVDITPYADQLDE [L19A] showed a protein stability index of 3.21.
For FHPIKETVVEEPVDITPYRDQLDE [L19R], the protein stability index was 3.14.
With FHPIKETVVEEPVDITPYGDQLDE [L19G] the protein stability index was 3.32.
Variant FHPIKETVVEEPVDITPYDDQLDE [L19D] has a protein stability index of 3.24.
With FHPIKETVVEEPVDITPYEDQLDE [L19E] the protein stability index was 4.34.
In the case of FHPIKETVVEEPVFITPYLDQLDE [D14F], the protein stability index is reported as 1.93.
FHPIKETVVEEPVLITPYLDQLDE [D14L] gave a protein stability index of 2.91.
With FHPIKETVVEEPVWITPYLDQLDE [D14W] the protein stability index was 1.63.
FHPIKETVVEEPVAITPYLDQLDE [D14A] showed a protein stability index of 3.05.
Work on FHPIKETVVEEPVVITPYLDQLDE [D14V] yielded a protein stability index of 2.73.
FHPIKETVVEEPVKITPYLDQLDE [D14K] showed a protein stability index of 3.13.
FHPIKETVVEEPVNITPYLDQLDE [D14N] gave a protein stability index of 3.04.
Variant FHPIKETVVEEPVTITPYLDQLDE [D14T] has a protein stability index of 3.18.
Work on FHPIKETVVEEPVPITPYLDQLDE [D14P] yielded a protein stability index of 3.09.
FHPIKETVVEEPVCITPYLDQLDE [D14C] gave a protein stability index of 3.12.
Work on FHPIKETVVEEPVGITPYLDQLDE [D14G] yielded a protein stability index of 2.42.
Variant FHPIKETVVEEPVMITPYLDQLDE [D14M] has a protein stability index of 2.14.
FHPIKETVVEEPVYITPYLDQLDE [D14Y] gave a protein stability index of 2.11.
In the case of FHPIKETVVEEPVQITPYLDQLDE [D14Q], the protein stability index is reported as 2.91.
With FHPIKETVVEEPVIITPYLDQLDE [D14I] the protein stability index was 2.9.
FHPIKETVVEEPVEITPYLDQLDE [D14E] gave a protein stability index of 3.18.
FHPIKETVVEEPVRITPYLDQLDE [D14R] gave a protein stability index of 2.62.
FHPIKETVVEEPVSITPYLDQLDE [D14S] gave a protein stability index of 2.75.
With FHPIKETVVEEPVHITPYLDQLDE [D14H] the protein stability index was 3.11.
Variant FHPIKETVVEEPVDITPYLDKLDE [Q21K] has a protein stability index of 3.05.
FHPIKETVVEEPVDITPYLDALDE [Q21A] showed a protein stability index of 3.73.
Work on FHPIKETVVEEPVDITPYLDLLDE [Q21L] yielded a protein stability index of 3.05.
With FHPIKETVVEEPVDITPYLDNLDE [Q21N] the protein stability index was 3.06.
Variant FHPIKETVVEEPVDITPYLDELDE [Q21E] has a protein stability index of 3.62.
For FHPIKETVVEEPVDITPYLDMLDE [Q21M], the protein stability index was 3.42.
In the case of FHPIKETVVEEPVDITPYLDILDE [Q21I], the protein stability index is reported as 3.26.
Work on FHPIKETVVEEPVDITPYLDGLDE [Q21G] yielded a protein stability index of 3.56.
Variant FHPIKETVVEEPVDITPYLDCLDE [Q21C] has a protein stability index of 2.55.
With FHPIKETVVEEPVDITPYLDHLDE [Q21H] the protein stability index was 3.26.
In the case of FHPIKETVVEEPVDITPYLDFLDE [Q21F], the protein stability index is reported as 2.55.
FHPIKETVVEEPVDITPYLDPLDE [Q21P] gave a protein stability index of 3.15.
FHPIKETVVEEPVDITPYLDDLDE [Q21D] gave a protein stability index of 3.51.
For FHPIKETVVEEPVDITDYLDQLDE [P17D], the protein stability index was 3.58.
For FHPIKETVVEEPVDITFYLDQLDE [P17F], the protein stability index was 3.08.
For FHPIKETVVEEPVDITWYLDQLDE [P17W], the protein stability index was 3.61.
Work on FHPIKETVVEEPVDITTYLDQLDE [P17T] yielded a protein stability index of 2.94.
With FHPIKETVVEEPVDITEYLDQLDE [P17E] the protein stability index was 3.89.
FHPIKETVVEEPVDITHYLDQLDE [P17H] showed a protein stability index of 3.63.
FHPIKETVVEEPVDITIYLDQLDE [P17I] showed a protein stability index of 2.49.
FHPIKETVVEEPVDITKYLDQLDE [P17K] gave a protein stability index of 2.88.
Work on FHPIKETVVEEPVDITCYLDQLDE [P17C] yielded a protein stability index of 3.17.
FHPIKETVVEEPVDITGYLDQLDE [P17G] showed a protein stability index of 3.46.
Work on FHPIKETVVEEPVDITLYLDQLDE [P17L] yielded a protein stability index of 2.92.
FHPIKETVVEEPVDITNYLDQLDE [P17N] showed a protein stability index of 3.19.
FHPIKETVVEEPVDITVYLDQLDE [P17V] gave a protein stability index of 3.21.
With FHPIKETVVEEPVDITSYLDQLDE [P17S] the protein stability index was 3.12.
Variant FHPIKETVVEEPVDITAYLDQLDE [P17A] has a protein stability index of 3.25.
For FHPIKETVVEEPVDITMYLDQLDE [P17M], the protein stability index was 3.17.
Variant FHPIKETVVEEPVDITRYLDQLDE [P17R] has a protein stability index of 2.39.
Work on FHPIKETVVEEPVDITYYLDQLDE [P17Y] yielded a protein stability index of 3.75.
With FHPIKETVVEEPVDITQYLDQLDE [P17Q] the protein stability index was 3.52.
Work on FHPIKETVVEEPVDITPILDQLDE [Y18I] yielded a protein stability index of 2.7.
In the case of FHPIKETVVEEPVDITPHLDQLDE [Y18H], the protein stability index is reported as 3.5.
With FHPIKETVVEEPVDITPRLDQLDE [Y18R] the protein stability index was 3.58.
Work on FHPIKETVVEEPVDITPLLDQLDE [Y18L] yielded a protein stability index of 3.88.
Work on FHPIKETVVEEPVDITPDLDQLDE [Y18D] yielded a protein stability index of 3.43.
Variant FHPIKETVVEEPVDITPVLDQLDE [Y18V] has a protein stability index of 3.87.
Work on FHPIKETVVEEPVDITPALDQLDE [Y18A] yielded a protein stability index of 3.58.
For FHPIKETVVEEPVDITPCLDQLDE [Y18C], the protein stability index was 3.47.
FHPIKETVVEEPVDITPPLDQLDE [Y18P] showed a protein stability index of 3.23.
Work on FHPIKETVVEEPVDITPNLDQLDE [Y18N] yielded a protein stability index of 3.72.
FHPIKETVVEEPVDITPKLDQLDE [Y18K] gave a protein stability index of 3.77.
Variant FHPIKETVVEEPVDITPFLDQLDE [Y18F] has a protein stability index of 3.79.
FHPIKETVVEEPVDITPQLDQLDE [Y18Q] showed a protein stability index of 3.95.
Work on FHPIKETVVEEPVDITPWLDQLDE [Y18W] yielded a protein stability index of 3.11.
For FHPIKETVVEEPVDITPELDQLDE [Y18E], the protein stability index was 3.36.
FHPIKETVVEEPVDITPSLDQLDE [Y18S] showed a protein stability index of 3.77.
Work on FHPIKETVVEEPVDITPGLDQLDE [Y18G] yielded a protein stability index of 3.69.
With FHPIKETVVEEPVDITPTLDQLDE [Y18T] the protein stability index was 3.71.
For FHPIKETVVEEPVDITPMLDQLDE [Y18M], the protein stability index was 3.58.
